This test deals with H3K9me3 chromatin arrays (12 x 200 bp x 601 oligonucleosomes with H3K9-trimethylated histone H3) (Xenopus | not stated) (UniProt P84233).

The substance “HP1α-K42 (K42Q mutant of human HP1α) (from UniProt P45973 1-191) (natural protein)” gave a degree of association of H3K9me3 chromatin arrays (40 nM) with 5 μM protein, chromatin association assay of 20%.

Values taken from publication PMC10723116.
